Test results: paper PMC3273814

System: T1, Ms6564 (Mycobacterium smegmatis mc2 155), ORF:45299f77
T1 sequence: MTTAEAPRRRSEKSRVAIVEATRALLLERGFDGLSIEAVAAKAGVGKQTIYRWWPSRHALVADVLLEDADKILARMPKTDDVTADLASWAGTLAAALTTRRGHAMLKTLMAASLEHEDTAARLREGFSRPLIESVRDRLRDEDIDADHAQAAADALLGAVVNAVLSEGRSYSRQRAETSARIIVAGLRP
Assay: DNase I footprinting

TTAAATCCGCTGGCCCCGATCACCAGTTTCGTCGCTGTCATAGGCCCTTGCGCTCGTGTCCTCGGGTCATAAACGAGACGGTACGTCTCGTCTTGTGGCAGAGTACGGGGTGTCACTTTTCGTGTAAAGGCCTGCGATGACCACCGCTGAAGCGCCCCGCCGGCGCAGTGAGAAGTCGCGGGTGGCCAT (double strand) [Ms6564p4 (p4-1 / p4-2)]
binding: binds
